Experimental data as given in patent publication US20230212587A1, “Mutant Hydroxyphenylpyruvate Dioxygenase Polypeptide, Encoding Gene Thereof and Use Therefor” (Beijing Dabeinong Biotechnology Co., Ltd., priority 2019, published 2023).

B1: AhHPPDm-F372V: Arachis hypogaea HPPD mutant F372V, SEQ ID NO: 385 (protein)
chain: MATAYTYAHAVTYCNSQHNPPIIPILSTNQHPPRVTLPSSIPHFISTITTFNLKHFPSHSLHTVMVTQTQQNAPSSSPELGFKLVGFKNFVRTNPKSDRFKVIRFHHVEFWCTDATNTASRFSWGLGMPIVAKSDLSTGNAVHASYLLRSGDLNFLFSAPYSASIAGDGASASFPSFSASDCHSFAAKHGLAVRAVAIEVEDASAAFSASVANGAKPVSPAVLLDNSVGFAEVHLYGDVVLRYISYSAPTRESNLNPTLRFLPGFEAVEADSSFPELDYGIRRLDHAVGNVPELAPAVNYLKKFTGFHEFAEFTAEDVGTSESGLNSVVLASNDEMVLLPLNEPVYGTKRKSQIETYLEHNEGAGLQHLALVSEDIFRTLREMRKRSTIGGFQFMPSPPPTYYRNLKKRAGDVLSDEQIKECEELGILVDRDDQGTLLQIVTKPVGDRPTIFIEIIQRIGCMLKDEEGKVYQKGGCGGFGKGNFSELFKSIEEYEKTLESRRTA
modifications: AhHPPDm-F372V Amino Acid Sequence
B2: N2HPPDm-F372V: Sphingobium sp. N2 HPPD mutant F372V, SEQ ID NO: 391 (protein)
chain: MTLFDNPLGLDGFEFVEFSAPAKGMLEPVFAAMGFVMIARHRSKDVQLWRQGGINLIANYEPRSPAAYFAAEHGPSACGMGWRVRNAAKAYELAVERGAEPVDVKTGPMELRLPAIRGIGGSIIYLIDRYEDEDGGLSIYDIDFVYEPGVDRHPEGAGFKIIDHLTHNVYGGRMAHWASFYERVFGFREIRYFDIKGEYTGLTSKAMTAPDGKIRIPLNEEGKAGGGQIEEFLRAYNGEGIQHIAFLCDDLIAAWDKLKALGTPLMTAPPATYYEMLDERLPGHGEPVAELQKRGILLDGSTQQGDPRLLLQIVGQATIGPVFFEFIQRKKDEGFGEGNFTALFESMERDQLRRGTLNAGESA
modifications: N2HPPDm-F372V Amino Acid Sequence
B3: N1HPPDm-F372V: Sphingobium sp. N1 HPPD mutant F372V, SEQ ID NO: 389 (protein)
chain: MAADSENPLGLHGFAFAEFTSPDPAAMARQFEQLGFVPAARRKDRGLTLYRQGRIAFILNAGEGEQASAFRAAHGPSANGMAFNVADAKAAHRHAIQSGATDADTAQSALPGTYAIEGIGDSLLYLVDSDPFADWDEVPGWREASAERGVGLDLLDHLTHNVRRGQMRVWSEFYATLFGFEEQKFFDIKGQATGLFSQAMIAPDHEIRIPLNESQDDNSQIEEFIREYNGEGIQHLALTTPDIYSTVEKLRANGVRLQDTIDTYYDLVDERVPGHGEDLARLRKNRILIDGDVHDEGLLLQIVTETMFGPIFFEIIQRKGNEGFGNGNFQVLYESIELDQIRRGVVTVDA
modifications: N1HPPDm-F372V Amino Acid Sequence
B4: ZmHPPDm-F372V: Zea mays HPPD mutant F372V, SEQ ID NO: 347 (protein)
chain: MPPTPTAAAAGAAVAAASAAEQAAFRLVGHRNFVRFNPRSDRFHTLAFHHVELWCADAASAAGRFSFGLGAPLAARSDLSTGNSAHASLLLRSGSLSFLFTAPYAHGADAATAALPSFSAAAARRFAADHGLAVRAVALRVADAEEAFRTSVAAGARPAFGPVDLGRGFRLAEVELYGDVVLRYVSYPDGAAGEPFLPGFEGVASPGAADYGLSRFDHIVGNVPELAPAAAYFAGFTGFHEFAEFTTEDVGTAESGLNSMVLANNSENVLLPLNEPVHGTKRRSQIQTFLDHHGGPGVQHMALASDDVLRTLREMQARSAMGGFEFMAPPTSDYYDGVRRRAGDVLTEAQIKECQELGVLVDRDDQGVLLQIVPKPVGDRPTLFLEIIQRIGCMERDEKGQEYQKGGCGGFGKGNFSQLFKSIEDYEKSLEAMQAAAAATAQGS
modifications: ZmHPPDm-F372V Amino Acid Sequence
B5: SlHPPDm-F372V (protein)
chain: MGKQAAAAADDQQLPGDIEDKFKLVGFNHFVRTNPRSDFFTVKRFHHIEFWCGDATNTARRFSWGLGLPIAAISDLSTGNSVHASYLLRSSSSSQLQFLFTAPYSSAISTSSSASIPTFSVSSHRSFTATHGLGVRAIALEVENSRLAFSTCVAHGAKPVSEPVILNDEVVIAEVHLYGDVVLRFVSFLKDSNCFVFLPGFESVEGAQLDYGIRRLDHAVGNVPELGPVVEYIKSFTGFHEFAEFTAEDVGTAESGLNSVVLANNDETVLFPLNEPVYGTKRKSQIQTYLEHNEGAGVQHLALVTEDIFRTLREMRKRSGIGGFEFMPSPPPTYYKNLKTRAGDILSDEQIQECEELGILVDRDDQGTLLQIVTKPVGDRPTIFLEIIQRIGCMLKNEEGELYQKGGCGGFGKGNFSELFKSIEEYEKTLEAKQNTQVAIA
modifications: SlHPPDm-F372V Amino Acid Sequence
B6: CsHPPDm-F372V: Cucumis sativus HPPD mutant F372V, SEQ ID NO: 379 (protein)
chain: MGKEADFPRAPSEATDGGATASQSEFELQGFDNFIRTNPKSDRFKVKRFHHIEFWCTDATNVARRFSWGLGMQIVAKSDLSTGNMTHASYLLRSGHLCFLFTAPYSPSIAAAQNLTPASTASIPSFDHSVCRSFSGTHGFGARAIALEVEDAEIAFRTSVAHGAKPSCPPIVLENRAVLSEVHLYGDVVLRYISYKNPVSGDNGENKPDEWFLPKFEAMEETASFPLDFGIRRLDHAVGNVPELGPAVSYLKGFTGFHEFAEFTAEDVGTSESGLNSMVLANNEEMVLLPINEPVFGTKRKSQIQTYLEHNEGAGVQHLALMSEDIFRTLREMRKRSSVGGFEFMPSPPPTYYKNLKSRAGDVLTDEQIKECEELGILVDKDDQGTLLQIVTKPVGDRPTIFIEIIQRLGCMMKDEEGKAFQKGGCGGFGKGNFSELFKSIEEYEKTLEAKRVSE
modifications: CsHPPDm-F372V Amino Acid Sequence
B7: NtHPPDm-F372V: Nicotiana tabacum HPPD mutant F372V, SEQ ID NO: 377 (protein)
chain: MGKLETVTTTSAAAADDSSELTTNFKLVGFKNFIRTNPRSDFFSVKSFHHIEFWCGDATNTARRFSWSLGMPIAAKSDLSTGNSVHASYLLRPVSGSLQFLFTAPYSPSISTPSSAAIPSFSTSTHRSFTTTHGLGVRAVALEVENAYTAFSASVSRGAKPMFEPVTIDEQVAMAEVHLYGDVVLRFVSYLKDADNLVFLPGFEAMDETASYKELDYGIRRLDHAVGNVPELGPVVDYIKRFTGFHEFAEFTAEDVGTAESGLNSMVLANNDETVLLPLNEPVYGTKRKSQIQTYLEHNEGAGVQHLALVTEDIFKTLTEMRKRSGVGGFEFMPSPPPTYYKNLKNRAGDVLSDEQILACEELGILVDRDDQGTLLQIVTKPVGDRPTIFIEIIQRIGCMLKDGKGQVYQKGGCGGFGKGNFSELFRSIEEYEKTLEAKQANQVAAA
modifications: NtHPPDm-F372V Amino Acid Sequence
B8: BvHPPDm-F372V: Beta vulgaris HPPD mutant F372V, SEQ ID NO: 375 (protein)
chain: MGTLSPQPQTSPSQFKLVGYSNFIRVNPLSDLFPVKRFHHVEFWCGDATNVSRRFSWGLGMPIVAKSDLSTGNSVHASYLLRSGELHFLFTSPYSPSLSSPSSATIPTFSFSLFTSFLTSHGLAVRAVAVEVQDAEAAFHISVSNGASPVSPPIRLHDGVVLSEVHLYGDVVLRYVSTSSVVDGIFLPGFEEMLGESSFQELDFGLRRLDHAVGNVPELAPAIEYVKKFTGFHEFAEFTTEDVGTSESGLNSAVVANNDETVLFPMNEPVYGTKRKSQIQTYLEHNEGAGVQHLALMSEDIFWTLREMRKRSGLGGFEFMPSPPPTYYRNLRNRAADVLSEEQMKECEELGILVDKDDQGTLLQIVTKPIGDRPTMFIEIIQRIGCMMKDEEGKVYQKGGCGGFGKGNFSELFKSIEEYEKTLERKPIADTNAT
modifications: BvHPPDm-F372V Amino Acid Sequence
B9: StHPPDm-F372V: Solanum tuberosum HPPD mutant F372V, SEQ ID NO: 381 (protein)
chain: MGKQAATATATATATADDQQLPADIEDKYKLVGFNNFVRTNPRSDLFNVKRFHHIEFWCGDATNTARRFSWGLGLPIAAKSDLSTGNSVHASYLLRSSSSQLQFLFTAPYSPAISTPSSSSIPTFSVSSHRSFTETHGLGVRAIALEVENSRLAFSTCVSHGAKPVSEPVILNDEVVISEVHLYGDVVLRFVSFLKDSNRFVFLPGFELVEGAQLDYGIRRLDHAVGNVPQLGPVVEYIKSFTGFHEFAEFTAEDVGTAESGLNSVVLANNDETVLFPLNEPVYGTKRKSQIQTYLEHNEGAGVQHLALVTEDIFRTLREMRKRSGIGGFEFMPSPPPTYYKNLKSRAGDILSDEQIKECEELGILVDRDDQGTLLQIVTKPVGDRPTIFLEIIQRIGCMLQNAEGELYQKGGCGGFGKGNFSELFKSIEEYEKTLEAKQNTQVAIA
modifications: StHPPDm-F372V Amino Acid Sequence
B10: CyHPPDm-F372V: Cyanobacteria HPPD mutant F372V, SEQ ID NO: 387 (protein)
chain: MEFDYLHLYVDDYQSAHRCYQRQWGFTCVNKIITDQGITGIYQQGQILLLISASESSLSRYADYLQKHPPGVGEVAWQVANWQKIQHQLSELQIETTPVIHPLTKAEGLTFLLWGDVHHSIYPVRSELNQNKTLHGVGLTTIDHVVLNIAADQFTQASQWYQQVFGWSVQQSFTVNTPHSGLYSEALASANGKVQFNLNCPTNNSSQIQTFLANNHGAGIQHVAFSTTSITRTVAHLRERGVNFLKIPTGYYQQQRNSSYFNYASLDWDTLQCLEILLDDQDNTGERLLLQIVSQPCYGVGTLFWEIIERRHRAKGFGQGNFQALYEAVETLEKQLEVP
modifications: CyHPPDm-F372V Amino Acid Sequence

These molecules were tested on Arabidopsis thaliana T1 plants (assay: Topramezone tolerance of transgenic Arabidopsis thaliana T1 plants (pesticide damage grade by bleached leaf area, score, resistance evaluation)). Settings: topramezone 25 g ai/ha (1x); HPPD F372V mutants, Table 7.
Format: in vivo
In short: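 Herbicide tolerance was judged per plant on a bleaching scale (grade 0 no bleaching to grade 3 fully bleached) 7 DAT. Topramezone doses were 0, 25, 50 and 100 g ai/ha on 18-day-old T1 and wild-type plants.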

Molecule | Resistance evaluation
B1 | Poorly resistant
B2 | Highly resistant
B3 | Highly resistant
B4 | Highly resistant
B5 | Poorly resistant
B6 | Poorly resistant
B7 | Poorly resistant
B8 | Poorly resistant
B9 | Poorly resistant
B10 | Poorly resistant

Same assay, conditions: topramezone 100 g ai/ha (4x); HPPD F372V mutants, Table 7

Molecule | Resistance evaluation
B1 | Non-resistant
B2 | Highly resistant
B3 | Highly resistant
B4 | Poorly resistant
B5 | Non-resistant
B6 | Non-resistant
B7 | Non-resistant
B8 | Non-resistant
B9 | Non-resistant
B10 | Non-resistant
